These results are taken from US20190100602A1 (INSERM INSTITUT NATIONAL DE LA SANT ET DE LA RECHERCHE M …, published 2019).

Like-named read-outs stand apart in the source and are kept apart here.

Assay in all cases: cell-based or functional assay
In experiment [1] the target is T1, human antithrombin (human, UniProt P01008 33-464).
The target in experiment [2] is T1, human antithrombin. The source holds these as a separate data set.
Experiment [3] has as its target T1, human antithrombin. The source holds these as a separate data set.
Further: test concentration or dose not given here.

T1 sequence (P01008 33-464 limits assumed): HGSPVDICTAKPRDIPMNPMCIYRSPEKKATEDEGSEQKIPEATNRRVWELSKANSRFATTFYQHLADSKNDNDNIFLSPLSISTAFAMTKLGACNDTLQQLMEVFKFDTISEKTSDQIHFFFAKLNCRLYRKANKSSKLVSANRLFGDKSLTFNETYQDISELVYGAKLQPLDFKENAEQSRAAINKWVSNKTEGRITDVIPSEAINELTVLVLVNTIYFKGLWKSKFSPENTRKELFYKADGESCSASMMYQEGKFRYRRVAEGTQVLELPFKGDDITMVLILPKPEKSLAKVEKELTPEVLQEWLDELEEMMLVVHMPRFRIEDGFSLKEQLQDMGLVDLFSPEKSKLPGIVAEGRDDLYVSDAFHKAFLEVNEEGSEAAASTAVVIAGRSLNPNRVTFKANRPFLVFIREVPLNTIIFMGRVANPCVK

B1: KB-AT-112 (bispecific antibody)
chain: QVQLQESGGGLVQAGGSLRLSCAASGRTFRNYVMGWFRQAPGKDPEFIAGINRSGAITYYGDSVKGRFTISRDNAKNTVSLQMNSLEPEDTAVYYCAAGETTWSIRRDDYDYWGQGTQVTVSSGGGSGGGSGGGSGGGSQVQLQESGGGLVQAGGSLRLSCAASGRTFRNYVMGWFRQAPGKDPEFIAGINRSGAITYYGDSVKGRFTISRDNAKNTVSLQMNSLEPEDTAVYYCAAGETTWSIRRDDYDYWGQGTQVTVSSGGGSGGGSGGGSGGGSQVQLVQSGGGLVQAGGSLRLSCAASGRTFNNNGMGWFRQAPGKEREFVAAISWSGGSTYYADSVKGRYIMSRDNAKNTVYLQMNSLKPEDTAVYYCAARTRYNSGLFSRNYDYWGQGTQVTVSS
As to B1, in experiment [1], the “% antithrombin neutralization (thrombin amidolytic activity on S-2238, with unfractionated heparin)” value was 29%.

B2: KB-AT-002/003 (bispecific antibody)
chain: QVQLQESGGGLVQAGGSLRLSCAASGRTFNNNGMGWFRQAPGKEREFVAAISWSGGSTYYADSVKGRYIMSRDNAKNTVYLQMNSLKPEDTAVYYCAARTRYNSGLFSRNYDYWGQGTQVTVSSGGGSGGGSGGGSGGGSQVQLQESGGGLVQPGGSLRLSCAASALTFSSRAWAWYRQAPGKQRELVASITGGGTTNYADSVKGRFTISRDNAKNTVYLQMNSLKPEDTAVHYCNGYRYTYAWGQGTQVTVSS
In the case of B2, the “% antithrombin neutralization (thrombin amidolytic activity on S-2238, with unfractionated heparin)” value in experiment [2] was determined as 47%. In addition, the “% antithrombin neutralization (factor Xa amidolytic activity on S-2765, with LMW-heparin)” value in experiment [3] worked out at 68%.

B3: KB-AT-113 (bispecific antibody)
chain: QVQLQESGGGLVQAGGSLRLSCAASGRTFRNYVMGWFRQAPGKDPEFIAGINRSGAITYYGDSVKGRFTISRDNAKNTVSLQMNSLEPEDTAVYYCAAGETTWSIRRDDYDYWGQGTQVTVSSGGGSGGGSGGGSGGGSQVQLQESGGGLVQAGGSLRLSCAASGRTFRNYVMGWFRQAPGKDPEFIAGINRSGAITYYGDSVKGRFTISRDNAKNTVSLQMNSLEPEDTAVYYCAAGETTWSIRRDDYDYWGQGTQVTVSSGGGSGGGSGGGSGGGSQVQLQESGGGLVQPGGSLRLSCAASALTFSSRAWAWYRQAPGKQRELVASITGGGTTNYADSVKGRFTISRDNAKNTVYLQMNSLKPEDTAVHYCNGYRYTYAWGQGTQVTQVTVSS
B3: the “% antithrombin neutralization (thrombin amidolytic activity on S-2238, with unfractionated heparin)” value in experiment [1] is 97%.

B4: KB-AT-001/005 (other)
chain: QVQLQESGGGLVQAGGSLRLSCAASGRTFRNYVMGWFRQAPGKDPEFIAGINRSGAITYYGDSVKGRFTISRDNAKNTVSLQMNSLEPEDTAVYYCAAGETTWSIRRDDYDYWGQGTQVTVSSGGGSGGGSGGGSGGGSEVQLVESGGGLVQPGGSLRLSCEASGRDFNDAALGWSRQVPGKARETVAMITSGGVRNYAETVKDRFTISRDNAKNTVYLDMNNLQPDDTGVYYCKADSFKGDYDTSWYLYWGQGTQVTVSS
With B4, the “% antithrombin neutralization (thrombin amidolytic activity on S-2238, with unfractionated heparin)” value in experiment [2] was determined as 28%. The “% antithrombin neutralization (factor Xa amidolytic activity on S-2765, with LMW-heparin)” value in experiment [3] is 34%.

B5: KB-AT-115 (other)
chain: QVQLQESGGGLVQAGGSLRLSCAASGRTFRNYVMGWFRQAPGKDPEFIAGINRSGAITYYGDSVKGRFTISRDNAKNTVSLQMNSLEPEDTAVYYCAAGETTWSIRRDDYDYWGQGTQVTVSSGGGSGGGSGGGSGGGSQVQLQESGGGLVQAGGSLRLSCAASGRTFRNYVMGWFRQAPGKDPEFIAGINRSGAITYYGDSVKGRFTISRDNAKNTVSLQMNSLEPEDTAVYYCAAGETTWSIRRDDYDYWGQGTQVTVSSGGGSGGGSGGGSGGGSEVQLVESGGGLVQPGGSLRLSCEASGRDFNDAALGWSRQVPGKARETVAMITSGGVRNYAETVKDRFTISRDNAKNTVYLDMNNLQPDDTGVYYCKADSFKGDYDTSWYLYWGQGTQVTVSS
With B5, the “% antithrombin neutralization (thrombin amidolytic activity on S-2238, with unfractionated heparin)” value in experiment [1] was 26%.

B6: KB-AT-1123 (bispecific antibody)
chain: QVQLQESGGGLVQAGGSLRLSCAASGRTFRNYVMGWFRQAPGKDPEFIAGINRSGAITYYGDSVKGRFTISRDNAKNTVSLQMNSLEPEDTAVYYCAAGETTWSIRRDDYDYWGQGTQVTVSSGGGSGGGSGGGSGGGSQVQLQESGGGLVQAGGSLRLSCAASGRTFRNYVMGWFRQAPGKDPEFIAGINRSGAITYYGDSVKGRFTISRDNAKNTVSLQMNSLEPEDTAVYYCAAGETTWSIRRDDYDYWGQGTQVTVSSGGGSGGGSGGGSGGGSQVQLVQSGGGLVQAGGSLRLSCAASGRTFNNNGMGWFRQAPGKEREFVAAISWSGGSTYYADSVKGRYIMSRDNAKNTVYLQMNSLKPEDTAVYYCAARTRYNSGLFSRNYDYWGQGTQVTVSSGGGSGGGSGGGSGGGSQVQLQESGGGLVQPGGSLRLSCAASALTFSSRAWAWYRQAPGKQRELVASITGGGTTNYADSVKGRFTISRDNAKNTVYLQMNSLKPEDTAVHYCNGYRYTYAWGQGTQVTQVTVSS
In the case of B6, the “% antithrombin neutralization (thrombin amidolytic activity on S-2238, with unfractionated heparin)” value in experiment [1] came out at 99%.

B7: KB-AT-001/002 (bispecific antibody)
chain: QVQLQESGGGLVQAGGSLRLSCAASGRTFRNYVMGWFRQAPGKDPEFIAGINRSGAITYYGDSVKGRFTISRDNAKNTVSLQMNSLEPEDTAVYYCAAGETTWSIRRDDYDYWGQGTQVTVSSGGGSGGGSGGGSGGGSQVQLVQSGGGLVQAGGSLRLSCAASGRTFNNNGMGWFRQAPGKEREFVAAISWSGGSTYYADSVKGRYIMSRDNAKNTVYLQMNSLKPEDTAVYYCAARTRYNSGLFSRNYDYWGQGTQVTVSS
For B7, in experiment [2], the “% antithrombin neutralization (thrombin amidolytic activity on S-2238, with unfractionated heparin)” value amounted to 30%. Besides, the “% antithrombin neutralization (factor Xa amidolytic activity on S-2765, with LMW-heparin)” value in experiment [3] is 57%.

B8: KB-AT-001/003 (bispecific antibody)
chain: QVQLQESGGGLVQAGGSLRLSCAASGRTFRNYVMGWFRQAPGKDPEFIAGINRSGAITYYGDSVKGRFTISRDNAKNTVSLQMNSLEPEDTAVYYCAAGETTWSIRRDDYDYWGQGTQVTVSSGGGSGGGSGGGSGGGSQVQLQESGGGLVQPGGSLRLSCAASALTFSSRAWAWYRQAPGKQRELVASITGGGTTNYADSVKGRFTISRDNAKNTVYLQMNSLKPEDTAVHYCNGYRYTYAWGQGTQVTQVTVSS
For B8, the “% antithrombin neutralization (thrombin amidolytic activity on S-2238, with unfractionated heparin)” value in experiment [2] turned out to be 56%. In experiment [3], the “% antithrombin neutralization (factor Xa amidolytic activity on S-2765, with LMW-heparin)” value was 62%.
